Results reported in the supplement of paper PMC11316812.
± gives the standard deviation of the averaged measurements.

Key:
[1] = test system: MCF7; test: percentage of EdU-negative (G0-arrested) nuclei per well, 72 h; higher = more G0 arrest; settings: reference: sequence is the full UniProt precursor, the tested protein was the secreted form or ectodomain
[2] = test system: hTERT-HMEC; test: as above; settings: reference: sequence is the full UniProt precursor, the tested protein was the secreted form or ectodomain
[3] = protein concentration 0.0125714 µM
[4] = protein concentration 0.125714 µM
[5] = protein concentration 0.0228571 µM
[6] = protein concentration 0.228571 µM
[7] = protein concentration 0.02775 µM
[8] = protein concentration 0.2775 µM
[9] = protein concentration 0.03125 µM
[10] = protein concentration 0.3125 µM
[11] = protein concentration 0.018845 µM
[12] = protein concentration 0.18845 µM
[13] = protein concentration 0.012475 µM
[14] = protein concentration 0.12475 µM
[15] = protein concentration 0.02632 µM
[16] = protein concentration 0.2632 µM
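Further: secreted proteins added to cultured cells, EdU pulse at the end, nuclei found by Hoechst imaging, EdU status from nuclear versus surrounding ring intensity ratio, PBS as neutral control.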

Sequence: MRENMARGPCNAPRWASLMVLVAIGTAVTAAVNPGVVVRISQKGLDYASQQGTAALQKELKRIKIPDYSDSFKIKHLGKGHYSFYSMDIREFQLPSSQISMVPNVGLKFSISNANIKISGKWKAQKRFLKMSGNFDLSIEGMSISADLKLGSNPTSGKPTITCSSCSSHINSVHVHISKSKVGWLIQLFHKKIESALRNKMNSQVCEKVTNSVSSELQPYFQTLPVMTKIDSVAGINYGLVAPPATTAETLDVQMKGEFYSENHHNPPPFAPPVMEFPAAHDRMVYLGLSDYFFNTAGLVYQEAGVLKMTLRDDMIPKESKFRLTTKFFGTFLPEVAKKFPNMKIQIHVSASTPPHLSVQPTGLTFYPAVDVQAFAVLPNSSLASLFLIGMHTTGSMEVSAESNRLVGELKLDRLLLELKHSNIGPFPVELLQDIMNYIVPILVLPRVNEKLQKGFPLPTPARVQLYNVVLQPHQNFLLFGADVVYK
- percentage of EdU-negative [1, 3]: 24.5 ± 2.8%
- percentage of EdU-negative [1, 4]: 29.1 ± 5%
- percentage of EdU-negative [2, 3]: 6.02 ± 1.5%
- percentage of EdU-negative [2, 4]: 35.1 ± 4%

Sequence: MRERPRLGEDSSLISLFLQVVAFLAMVMGTHTYSHWPSCCPSKGQDTSEELLRWSTVPVPPLEPARPNRHPESCRASEDGPLNSRAISPWRYELDRDLNRLPQDLYHARCLCPHCVSLQTGSHMDPRGNSELLYHNQTVFYRRPCHGEKGTHKGYCLERRLYRVSLACVCVRPRVMG [Q9H293]
- percentage of EdU-negative [1, 5]: 24 ± 0.49%
- percentage of EdU-negative [1, 6]: 36.9 ± 1.7%
- percentage of EdU-negative [2, 5]: 5.07 ± 0.33%
- percentage of EdU-negative [2, 6]: 5.25 ± 1%

Sequence: MRFFCARCCSFGPEMPAVQLLLLACLVWDVGARTAQLRKANDQSGRCQYTFSVASPNESSCPEQSQAMSVIHNLQRDSSTQRLDLEATKARLSSLESLLHQLTLDQAARPQETQEGLQRELGTLRRERDQLETQTRELETAYSNLLRDKSVLEEEKKRLRQENENLARRLESSSQEVARLRRGQCPQTRDTARAVPPGSREVSTWNLDTLAFQELKSELTEVPASRILKESPSGYLRSGEGDTGCGELVWVGEPLTLRTAETITGKYGVWMRDPKPTYPYTQETTWRIDTVGTDVRQVFEYDLISQFMQGYPSKVHILPRPLESTGAVVYSGSLYFQGAESRTVIRYELNTETVKAEKEIPGAGYHGQFPYSWGGYTDIDLAVDEAGLWVIYSTDEAKGAIVLSKLNPENLELEQTWETNIRKQSVANAFIICGTLYTVSSYTSADATVNFAYDTGTGISKTLTIPFKNRYKYSSMIDYNPLEKKLFAWDNLNMVTYDIKLSKM
- percentage of EdU-negative [1, 7]: 23.1 ± 3.6%
- percentage of EdU-negative [1, 8]: 22.8 ± 0.49%
- percentage of EdU-negative [2, 7]: 5.22 ± 0.79%
- percentage of EdU-negative [2, 8]: 5.83 ± 0.68%

Sequence: MRFLAATFLLLALSTAAQAEPVQFKDCGSVDGVIKEVNVSPCPTQPCQLSKGQSYSVNVTFTSNIQSKSSKAVVHGILMGVPVPFPIPEPDGCKSGINCPIQKDKTYSYLNKLPVKSEYPSIKLVVEWQLQDDKNQSLFCWEIPVQIVSHL
- percentage of EdU-negative [1, 9]: 25.6 ± 0.29%
- percentage of EdU-negative [1, 10]: 27.1 ± 2%
- percentage of EdU-negative [2, 9]: 4.48 ± 0.41%
- percentage of EdU-negative [2, 10]: 5.49 ± 0.12%

Sequence: MRGAARAAWGRAGQPWPRPPAPGPPPPPLPLLLLLLAGLLGGAGAQYSSDRCSWKGSGLTHEAHRKEVEQVYLRCAAGAVEWMYPTGALIVNLRPNTFSPARHLTVCIRSFTDSSGANIYLEKTGELRLLVPDGDGRPGRVQCFGLEQGGLFVEATPQQDIGRRTTGFQYELVRRHRASDLHELSAPCRPCSDTEVLLAVCTSDFAVRGSIQQVTHEPERQDSAIHLRVSRLYRQKSRVFEPVPEGDGHWQGRVRTLLECGVRPGHGDFLFTGHMHFGEARLGCAPRFKDFQRMYRDAQERGLNPCEVGTD [Q641Q3]
- percentage of EdU-negative [1, 11]: 26.1 ± 2.3%
- percentage of EdU-negative [1, 12]: 35.6 ± 1.1%
- percentage of EdU-negative [2, 11]: 5.45 ± 1.1%
- percentage of EdU-negative [2, 12]: 18.2 ± 6%

Sequence: MRGANAWAPLCLLLAAATQLSRQQSPERPVFTCGGILTGESGFIGSEGFPGVYPPNSKCTWKITVPEGKVVVLNFRFIDLESDNLCRYDFVDVYNGHANGQRIGRFCGTFRPGALVSSGNKMMVQMISDANTAGNGFMAMFSAAEPNERGDQYCGGLLDRPSGSFKTPNWPDRDYPAGVTCVWHIVAPKNQLIELKFEKFDVERDNYCRYDYVAVFNGGEVNDARRIGKYCGDSPPAPIVSERNELLIQFLSDLSLTADGFIGHYIFRPKKLPTTTEQPVTTTFPVTTGLKPTVALCQQKCRRTGTLEGNYCSSDFVLAGTVITTITRDGSLHATVSIINIYKEGNLAIQQAGKNMSARLTVVCKQCPLLRRGLNYIIMGQVGEDGRGKIMPNSFIMMFKTKNQKLLDALKNKQC [Q9UKZ9]
- percentage of EdU-negative [1, 13]: 25.27 ± 0.085%
- percentage of EdU-negative [1, 14]: 25.1 ± 1.3%
- percentage of EdU-negative [2, 13]: 4.6 ± 0.68%
- percentage of EdU-negative [2, 14]: 7.45 ± 0.19%

Sequence: MRGLLVLSVLLGAVFGKEDFVGHQVLRISVADEAQVQKVKELEDLEHLQLDFWRGPAHPGSPIDVRVPFPSIQAVKIFLESHGISYETMIEDVQSLLDEEQEQMFAFRSRARSTDTFNYATYHTLEEIYDFLDLLVAENPHLVSKIQIGNTYEGRPIYVLKFSTGGSKRPAIWIDTGIHSREWVTQASGVWFAKKITQDYGQDAAFTAILDTLDIFLEIVTNPDGFAFTHSTNRMWRKTRSHTAGSLCIGVDPNRNWDAGFGLSGASSNPCSETYHGKFANSEVEVKSIVDFVKDHGNIKAFISIHSYSQLLMYPYGYKTEPVPDQDELDQLSKAAVTALASLYGTKFNYGSIIKAIYQASGSTIDWTYSQGIKYSFTFELRDTGRYGFLLPASQIIPTAKETWLALLTIMEHTLNHPY
- percentage of EdU-negative [1, 15]: 25.44 ± 0.046%
- percentage of EdU-negative [1, 16]: 27.3 ± 3%
- percentage of EdU-negative [2, 15]: 5.61 ± 0.74%
- percentage of EdU-negative [2, 16]: 8.13 ± 1.2%
